In this assay the target is RSC complex (budding yeast (S. cerevisiae) (endogenous in BJ3505)) (UniProt P32597). Description: BLI.

Our source for the fold affinity against unmodified NCPs values is article doi:10.1101/2020.03.02.972562.

Sequence of UniProt P32597 (P32597 whole entry, looked up, one chain of several): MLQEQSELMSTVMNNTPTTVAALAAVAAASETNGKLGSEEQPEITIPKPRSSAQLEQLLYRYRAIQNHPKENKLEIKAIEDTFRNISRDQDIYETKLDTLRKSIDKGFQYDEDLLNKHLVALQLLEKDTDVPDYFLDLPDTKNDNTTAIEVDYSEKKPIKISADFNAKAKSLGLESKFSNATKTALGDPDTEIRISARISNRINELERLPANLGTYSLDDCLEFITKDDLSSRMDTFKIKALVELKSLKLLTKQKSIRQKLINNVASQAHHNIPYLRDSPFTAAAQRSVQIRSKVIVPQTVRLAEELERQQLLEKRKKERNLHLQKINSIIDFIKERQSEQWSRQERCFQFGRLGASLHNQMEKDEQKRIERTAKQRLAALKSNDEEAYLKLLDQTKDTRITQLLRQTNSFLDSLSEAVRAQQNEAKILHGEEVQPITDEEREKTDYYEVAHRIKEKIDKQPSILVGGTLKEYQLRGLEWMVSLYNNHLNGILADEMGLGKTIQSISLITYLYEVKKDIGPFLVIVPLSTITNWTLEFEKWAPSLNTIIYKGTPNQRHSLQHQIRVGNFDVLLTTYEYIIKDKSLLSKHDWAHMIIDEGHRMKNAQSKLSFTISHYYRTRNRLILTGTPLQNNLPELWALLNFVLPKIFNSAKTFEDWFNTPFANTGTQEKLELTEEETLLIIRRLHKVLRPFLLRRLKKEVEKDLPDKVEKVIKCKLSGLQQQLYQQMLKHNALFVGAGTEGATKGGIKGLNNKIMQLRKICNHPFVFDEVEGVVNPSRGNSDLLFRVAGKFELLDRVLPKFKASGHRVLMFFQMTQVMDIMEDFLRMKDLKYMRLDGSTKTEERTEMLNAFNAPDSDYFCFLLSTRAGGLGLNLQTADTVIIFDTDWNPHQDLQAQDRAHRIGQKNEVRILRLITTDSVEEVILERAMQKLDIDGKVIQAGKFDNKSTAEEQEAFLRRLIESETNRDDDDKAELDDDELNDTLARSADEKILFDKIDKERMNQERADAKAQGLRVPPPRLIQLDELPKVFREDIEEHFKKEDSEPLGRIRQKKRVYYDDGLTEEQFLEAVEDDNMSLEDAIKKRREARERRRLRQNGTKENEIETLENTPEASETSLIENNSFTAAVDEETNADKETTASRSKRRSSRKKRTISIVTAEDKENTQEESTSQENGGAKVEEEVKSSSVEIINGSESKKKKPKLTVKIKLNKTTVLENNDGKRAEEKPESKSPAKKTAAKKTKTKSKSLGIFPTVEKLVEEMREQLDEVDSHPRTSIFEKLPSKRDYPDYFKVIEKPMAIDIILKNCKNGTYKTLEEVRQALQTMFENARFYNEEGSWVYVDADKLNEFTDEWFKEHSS

Turning to “SUMOylated nucleosome core particles (from UniProt P68431 1-136; P62805 1-103; P04908 1-130; P02281 6-126) (complex)”, the fold affinity against unmodified NCPs turned out to be 2 fold.
